For test [1], the target named is Trichinella spiralis E/S antigen.
The target in test [2] is Trichinella spiralis lysate.
The target in test [3] is Trichinella spiralis lysate. The source holds these as a separate data set.

Like-named read-outs stand apart in the source and are kept apart here.

B1: Anti-[TRISP][C9] (antibody, V domains shown)
VH: AVTLDESGGGLQTPGGALSLVCKASGFSISSYSMQWVRQAPGKGLEWVAGIYYDGNTWYAPAVKGRATISRDNGQSTVRLRLNNLRAEDTATYFCAKYAGGYSIDAWGHGTEVIVSS
VL: ALTQPSSVSANPGETVKITCSGSSGSYGWYQQKSPGSGPVTVIYYNDKRPSDIPSRFSGSASGSTATLTITGVQAEDEAVYFCGGYDSSTYVGIFGAGTTLTVL
The molecule B1 displayed a detection limit in test [1] of 6 ng/mL.

B2: Anti-[TRISP][18H1] (antibody, V domains shown)
VH: QVQLKESGPGLVQPSQTLSLTCTVSGLSLTSNSVGWIRQPPGKGLEWMGIIWSNGGTDYNSAIKSRLSISRDTSKSQVFLKMHSLQTEDTAMYFCARGPYYGSYRLGYFDYWGQGVMVTVSS
VL: DVVMTQSPSSLAVSAGETVTLNCQSSQSLLYSGTQNNYLAWYQQKPGQSPKLLISWASTRQSGVPLRFIGSGSGTDFTLTITSVQAEDLAIYYCQQFYDTPLTFGSGTKLEIK
For the molecule B2, the detection limit is 1 ng/mL in test [2] and 10 µg/mL in test [3].

Source of the values: patent publication US20190187132A1.
